# Laboratory results reported in patent publication US20260103541A1 (UNIVERSIT T Z RICH, published 2026).
# T1: human FAP (fibroblast activation protein) on HT1080hFAP cells (human, UniProt Q12884 1-760)
# T1 construct: also called seprase
# T1 sequence: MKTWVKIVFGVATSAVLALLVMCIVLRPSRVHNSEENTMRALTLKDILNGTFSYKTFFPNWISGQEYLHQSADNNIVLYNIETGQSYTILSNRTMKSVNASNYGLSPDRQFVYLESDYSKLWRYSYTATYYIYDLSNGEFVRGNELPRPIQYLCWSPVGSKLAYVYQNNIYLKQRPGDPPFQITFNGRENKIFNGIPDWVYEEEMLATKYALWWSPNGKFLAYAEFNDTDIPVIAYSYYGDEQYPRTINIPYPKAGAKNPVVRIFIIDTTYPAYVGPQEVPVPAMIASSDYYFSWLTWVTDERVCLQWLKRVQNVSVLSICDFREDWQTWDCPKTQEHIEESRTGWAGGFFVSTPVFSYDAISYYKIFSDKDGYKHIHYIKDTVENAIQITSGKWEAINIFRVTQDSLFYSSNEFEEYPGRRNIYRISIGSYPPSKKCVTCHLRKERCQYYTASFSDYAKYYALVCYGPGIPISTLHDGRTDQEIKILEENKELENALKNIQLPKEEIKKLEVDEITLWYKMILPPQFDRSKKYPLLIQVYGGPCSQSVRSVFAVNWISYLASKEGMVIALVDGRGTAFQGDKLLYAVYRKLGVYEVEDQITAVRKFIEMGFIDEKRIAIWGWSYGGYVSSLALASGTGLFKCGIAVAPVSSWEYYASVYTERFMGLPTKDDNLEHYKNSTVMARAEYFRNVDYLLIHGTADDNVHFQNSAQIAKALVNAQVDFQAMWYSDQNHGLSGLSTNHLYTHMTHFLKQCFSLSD
# Biological target: T1, human FAP (fibroblast activation …)
# Experiment: flow cytometry cell-based binding assay, HT1080hFAP against FAP-negative HT1080 cells
row,Binder,binding result
1,"DARPin #5 (designed binder, also called designed ankyrin repeat domain #5; not shown: N terminal His6 tag; C terminal FLAG tag) DLGKKLLEAARAGQDDEVRILMANGADVNAEDHVGRTPLHLAAAHGHLEIVEVLLKTGADVNARDRHGITPLHLAAWSGHLEIVEVLLKTGADVNASDKQGNTPLHLAAYRGHLEIVEVLLEAGADVNAQDKFGKTPFDLAIDNGNEDIAEVLQ",binds
2,"DARPin #23 (designed binder, also called designed ankyrin repeat domain #23; not shown: N terminal His6 tag; C terminal FLAG tag) DLGKKLLEAARYGQDDEVRILMANGADVNAEDQHGHTPLHLAAFSGHLEIVEVLLKTGADVNANDINGVTPLHLAANVGHLEIVEVLLKHGADVNAQDKFGKTPFDLAAYLGNEDIAEVLQ",binds
3,"DARPin #10 (designed binder, also called designed ankyrin repeat domain #10; not shown: N terminal His6 tag; C terminal FLAG tag) DLGKKLLEAARAGQDDEVRILMANGADVNAADDQGRTPLHLAAMHGHLEIVEVLLKTGADVNANDWFGITPLHLAAWWGHLEIVEVLLKAGADVNAVDHSGDTPLHLAAHLGHLEIVEVLLKHGADVNAQDKFGKTPFDLAIDNGNEDIAEVLQ",binds
4,"DARPin #11 (designed binder, also called designed ankyrin repeat domain #11; not shown: N terminal His6 tag; C terminal FLAG tag) DLVKKLLEAARAGQDDEVRILMANGADVNANDHFGITPLHLTAWWGHLEIVEVLLKAGADVNAVDHWGTTPLHLAAHQGHLEIVEVLLKHGADVNAQDKFGKTAFDISIDNGNEDIAEVLQ",binds
5,"DARPin #21 (designed binder, also called designed ankyrin repeat domain #21; not shown: N terminal His6 tag; C terminal FLAG tag) DLGKKLLEAAELGQLDEVRILMANGADVNAMDQHGITPLHLAAWHGHLEIVEVLLKTGADVNAKDQDGSTPLHLAAYLGHLEIVEVLLKTGADVNAFDKFGNTPLHLAAHRGHLEIVEVLLKHGADVNAQDKFGKTPFDLAIDNGNEDIAEVLQ",binds
6,"DARPin #15 (designed binder, also called designed ankyrin repeat domain #15; not shown: N terminal His6 tag; C terminal FLAG tag) DLGKKLLEAARAGQDDEVRILMANGADVNAMDMWGITPLHLAAWAGHLEIVEVLLKTGADVNAFDQHGNTPLHLAAYRGHLEIVEVLLKTGADVNAHDNWGTTPLHLTAHNGHLEIVEVLLKAGADVNAQDKFGKTPFDLAIDNGNEDIAEVLQ",binds
7,"DARPin #4 (designed binder, also called designed ankyrin repeat domain #4; not shown: N terminal His6 tag; C terminal FLAG tag) DLGKKLLDAASVGQDDEVRILMANGADVNASDTYGRTPLHVAAQHGHLEIVDVLLAHGADVNASNAYGSTPLHVAAWTGHLEIVDVLLAYGADVNASNSQGNTPLHAAAATGHLEIVEVLLKHGADVNAQDKFGKTPFDLAIDNGNEDIAEVLQ",binds
8,"DARPin #17 (designed binder, also called designed ankyrin repeat domain #17; not shown: N terminal His6 tag; C terminal FLAG tag) DLGKKLLEAARAGQDDEVRILMANGADVNAADNYGITPLHLAAYRGHLEIVEVLLKTGADVNAHDNVGNTPLHLAAAKGHLEIVEVLLKAGADVNADDVQGVTPLHLAASQGHLEIVEVLLKHGADVNAQDKFGKTPFDLAIDNGNEDIAEVLQ",binds
9,"DARPin #13 (designed binder, also called designed ankyrin repeat domain #13; not shown: N terminal His6 tag; C terminal FLAG tag) DLGKKLLEAARAGQDDEVRILMANGADVNATDQHGRTPLHLAAHTGHLEIVEVLLKTGADVNAQDHQGITPLHLAAFKGHLEIVEVLLKTGADVNAQDNWGYTPLHLAAARGHLEIVEVLLKAGADVNAQDKFGKTPFDLAIDNGNEDIAEVLQ",binds
10,"DARPin #1 (designed binder, also called designed ankyrin repeat domain #1; not shown: N terminal His6 tag; C terminal FLAG tag) DLGKKLLDAARAGQDDEVRILMANGADVNAMDVWGVTPLHLAAWHRHLEIVEVLLKTGADVNANDDSGFTPLHLAAHWGHLEIVEVLLKHGADVNAQDKFGKTPFDLAIDNGNEDIAEVLQ",binds
11,"DARPin #22 (designed binder, also called designed ankyrin repeat domain #22; not shown: N terminal His6 tag; C terminal FLAG tag) DLGKKLLEAARAGQDDEVRILMANGADVNASDWWGITPLHLAAYWGHLEIVEVLLKTGADVNAQDNQGITPLHLAATLGHLEIVEVLLKHGADVNAQDKFGKTPFDLAIDNGNEDIAEVLQ",binds
12,"DARPin #16 (designed binder, also called designed ankyrin repeat domain #16; not shown: N terminal His6 tag; C terminal FLAG tag) DLGKKLLEAARAGQDDEVRILMANGADVNAKDRYGITPLHLAAYWGHLEIVEVLLKAGSDVNALDYHGSTPLHLAAWFGHLEIVEVLLKHGADVNAQDKFGKTPFDLAIDNGNEDIAEVLQ",binds
13,"DARPin #8 (designed binder, also called designed ankyrin repeat domain #8; not shown: N terminal His6 tag; C terminal FLAG tag) DLGKKLLEAARAGQDDEVRILMANGADVNAADEYGITPLHLAAFFGHLEIVEVLLKTGADVNADDAWGSTPLHLAAYKGHLEIVEVLLKHGADVNAQDKFGKTPFDLAIDNGNEDIAEVLQ",binds
14,"DARPin #24 (designed binder, also called designed ankyrin repeat domain #24; not shown: N terminal His6 tag; C terminal FLAG tag) DLGKKLLEAARAGQDDEVRILMANGADVNAIDVHGITPLHLAAYWGHLEIVEVLLKAGADVNAEDESGHTPLHLAAHWGHLEIVEVLLKHGADVNAQDKFGKTPFDLAIDNGNEDIAEVLQ",binds
15,"DARPin #12 (designed binder, also called designed ankyrin repeat domain #12; not shown: N terminal His6 tag; C terminal FLAG tag) DLGKKLLEAARAGQDDEVRILMANGADVNAQDQRGRTPLHLAAAWGHLEIVEVLLKTGADVNAADDMGHTPLHLAAAFGHLEIVEVLLKHGADVNAQDKFGKTPFDLAIDNGNEDIAEVLQ",binds
16,"DARPin #26 (designed binder, also called designed ankyrin repeat domain #26; not shown: N terminal His6 tag; C terminal FLAG tag) DLGKKLLEAARAGQDDEVRILMANGADVNAIDWWGITPLHLAALFGHLEIVEVLLKTGADVNAEDRLGFTPLHLAATTGHLEIVEVLLKAGADVNAQDKFGKTPFDLAIDNGNEDIAEVLQ",binds
17,"DARPin #3 (designed binder, also called designed ankyrin repeat domain #3; not shown: N terminal His6 tag; C terminal FLAG tag) DLGKKLLEAARAGQDDEVRILMANGADVNAQDMTGKTPLHLAAREGHLEIVEVLLKTGADVNAKDLWGVTPLHLAAFSGHLEIVEVLLKTGADVNAWDWEGKTPLHLAAVKGHPEIVEVLLKHGADVNAQDKFGKTPFDLAIDNGNEDIAEVLQ",binds
18,"DARPin #20 (designed binder, also called designed ankyrin repeat domain #20; not shown: N terminal His6 tag; C terminal FLAG tag) DLGKKLLEAARAGQDDEVRILMANGADVNAVDYQGRTPLHLAAQYGHLEIVEVLLKTGADVNAQDHHGITPLHLAAFWGHLEIVEVLLKAGADVNAKDDQGNTPLHLAAWRGHLEIVEVLLKHGADVNAQDKFGKTPFDLAIDNGNEDIAEVLQ",binds
19,"DARPin #25 (designed binder, also called designed ankyrin repeat domain #25; not shown: N terminal His6 tag; C terminal FLAG tag) DLGKKLLEAARAGQDDEVRILMANGADVNATDWQGSTPLHLAAQHGHLEIVEVLLKTGADVNAEDQNGITPLHLAAYWGHLEIVEVLLKAGADVNAVDRQGNTPLHLAAVWGHLEIVEVLLKHGADVNAQDKFGKTPFDLAIDNGNEDIAEVLQ",binds
